Data on two substances can be found in article PMC5353611.

Assay [1] has as its target His-tagged C-propeptide of the human procollagen α1(I) chain (C1A1His), chain of homo-CPI (human). The assay can be described thus: SDS-PAGE (non-reducing and reducing) + MALDI-TOF mass spectrometry; purified homo-CPI; ~85 kDa non-reducing, 30 kDa reducing; disulfide-bonded trimer.
Assay [2] deals with His-tagged C-propeptide of the human procollagen α2(I) chain (C1A2His) (human). In words: co-purification (Co2+ affinity by the His-tag of the α2 chain, gel filtration) with SDS-PAGE and MALDI-TOF mass spectrometry; α1 and α2 C-propeptides co-expressed in HEK 293T (plasmids 2:1); hetero-CPI separated from untagged homo-CPI by the His-tag of the α2 chain; with or without removal of the tag by TEV protease; Superdex S200. (Size exclusion chromatography separates by hydrodynamic size, large species first.)

Consider “His-tagged C-propeptide of the human procollagen α1(I) chain (C1A1His), chain of homo-CPI (domain or fragment)”, for which the stoichiometry N in assay [1] is 3.
Substance “Non-tagged C-propeptide of the human procollagen α1(I) chain (C1A1) (domain or fragment)” showed a stoichiometry N (α1 chains per α2 chain) in assay [2] of 2.

Broadly, the stoichiometry N is the number of molecules, sites or subunits per partner or assembly.
